Results: patent publication US20120058906A1 (published 2012)
Where a chain is given by its changes, count along the chain named. One block for each binder: values may come before it.

How the values were obtained:
[1] = target: T1, rHuman Erythropoietin R/Fc Chimera, CF (R&D Systems Cat#963-ER) (human, UniProt P19235 25-250); experiment: ECL (MSD Multi-Spot) binding assay, antigen spotted on plate; Fab 15 nM; blank spot 261
T1 construct: Bought Fc chimera; also called EPO R/Fc; Epo R; Fc part of the bought chimera not given
T1 sequence: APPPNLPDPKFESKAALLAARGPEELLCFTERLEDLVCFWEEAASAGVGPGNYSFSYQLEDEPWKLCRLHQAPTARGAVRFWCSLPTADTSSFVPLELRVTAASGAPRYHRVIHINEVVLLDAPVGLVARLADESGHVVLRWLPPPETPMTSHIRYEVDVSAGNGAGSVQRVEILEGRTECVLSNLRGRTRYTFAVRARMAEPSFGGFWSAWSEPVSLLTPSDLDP

[2] = target: T2, Recombinant Human DLL4 (R&D Systems Cat#1506-D4/CF) (human, UniProt Q9NR61 27-524); experiment: as above
T2 construct: Bought recombinant protein; also called delta-like protein 4; rHuman DLL4

[3] = target: T3, rHuman Notch-1/Fc Chimera, CF (R&D Systems Cat#3647-TK) (human, UniProt P46531 19-526); experiment: as above
T3 construct: Bought Fc chimera; Fc part of the bought chimera not given

[4] = target: T4, rHuman CD44/Fc Chimera, CF (R&D Systems Cat#3660-CD) (human, UniProt P16070 21-220); experiment: as above
T4 construct: Bought Fc chimera; Fc part of the bought chimera not given

[5] = target: T5, rHuman P-Cadherin/Fc Chimera, CF (R&D Systems Cat#861-PC) (human, UniProt P22223 108-654); experiment: as above
T5 construct: Bought Fc chimera; also called CDH3; Fc part of the bought chimera not given

[6] = target: T6, rHuman Notch-1/Fc Chimera, CF (R&D Systems Cat#3647-TK) (human, UniProt P46531 19-526); experiment: MSD ECL titration, Fab 0.1 nM, blank 201
T6 construct: Bought Fc chimera; Fc part of the bought chimera not given

[7] = target: T7, rHuman CD44/Fc Chimera, CF (R&D Systems Cat#3660-CD) (human, UniProt P16070 21-220); experiment: MSD ECL titration, Fab 0.1 nM, blank 201
T7 construct: Bought Fc chimera; Fc part of the bought chimera not given

[8] = target: T8, rHuman HGF R/c-MET/Fc Chimera, CF (R&D Systems Cat#358-MT/CF) (human, UniProt P08581 25-932); experiment: MSD ECL titration, Fab 0.1 nM, blank 201
T8 construct: Bought Fc chimera; also called HGF R/Fc; Fc part of the bought chimera not given

[9] = target: T9, rHuman CD44/Fc Chimera, CF (R&D Systems Cat#3660-CD) (human, UniProt P16070 21-220); experiment: ECL (MSD Multi-Spot) binding, antigen spotted on plate; Fab 0.5 nM
T9 construct: Bought Fc chimera; Fc part of the bought chimera not given

[10] = target: T10, rHuman IGF-1 sR, CF (R&D Systems Cat#391-GR) (human, UniProt P08069 31-932); experiment: as above
T10 construct: Bought soluble receptor; also called insulin-like growth factor-1 soluble receptor; IGF-R1

[11] = target: T11, rHuman P-Cadherin/Fc Chimera, CF (R&D Systems Cat#861-PC) (human, UniProt P22223 108-654); experiment: as above
T11 construct: Bought Fc chimera; Fc part of the bought chimera not given

[12] = target: T12, rHuman Erythropoietin R/Fc Chimera, CF (R&D Systems Cat#963-ER) (human, UniProt P19235 25-250); experiment: as above
T12 construct: Bought Fc chimera; also called EPO R/Fc; erythropoietin receptor; Fc part of the bought chimera not given
T12 sequence: T1 sequence

[13] = target: T13, Recombinant Human DLL4 (R&D Systems Cat#1506-D4/CF) (human, UniProt Q9NR61 27-524); experiment: as above
T13 construct: Bought recombinant protein; also called delta-like protein 4

[14] = target: T14, rHuman ErbB2/Fc Chimera, CF (R&D Systems Cat#1129-ER) (human, UniProt P04626 23-652); experiment: as above
T14 construct: Bought Fc chimera; also called human epidermal growth factor 2 receptor; HER2/neu; Fc part of the bought chimera not given

[15] = target: T15, rHuman EGF R/Fc Chimera, CF (R&D Systems Cat#344-ER) (human, UniProt P00533 25-645); experiment: as above
T15 construct: Bought Fc chimera; also called epidermal growth factor receptor; Fc part of the bought chimera not given

[16] = target: T16, rHuman HGF R/c-MET/Fc Chimera, CF (R&D Systems Cat#358-MT/CF) (human, UniProt P08581 25-932); experiment: as above
T16 construct: Bought Fc chimera; also called HGF R/Fc; hepatocyte growth factor receptor; Fc part of the bought chimera not given

[17] = target: T17, rHuman Notch-1/Fc Chimera, CF (R&D Systems Cat#3647-TK) (human, UniProt P46531 19-526); experiment: as above
T17 construct: Bought Fc chimera; Fc part of the bought chimera not given

[18] = target: T18, rHuman Erythropoietin R/Fc Chimera, CF (R&D Systems Cat#963-ER) (human, UniProt P19235 25-250); experiment: MSD ECL multi-spot plate; Fab 130 nM; blank spot 1153
T18 construct: also called EPO R/Fc; Epo R; Fc part of the bought chimera not given
T18 sequence: T1 sequence

[19] = target: T19, rHuman ErbB2/Fc Chimera, CF (R&D Systems Cat#1129-ER) (human, UniProt P04626 23-652); experiment: as above
T19 construct: also called HER2/neu; human epidermal growth factor 2 receptor; Fc part of the bought chimera not given
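Note: blank spot per well as comparator with Hit at signal to blank ratio of 4 or more.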

B2: Fab VH1-46_IGHD6-6*01_IGHJ1*01 & L6_IGKJ1*01 (Fab, V domains shown)
VH: QVQLVQSGAEVKKPGASVKVSCKASGYTFTSYYMHWVRQAPGQGLEWMGIINPSGGSTSYAQKFQGRVTMTRDTSTSTVYMELSSLRSEDTAVYYCAREEYSSSSAEYFQHWGQGTLVTVSS
VL: not shown
notes: Expressed in E. coli as Fab: heavy chain with CH1 plus Flag and His tags from Plasmid A, kappa light chain constant region from Plasmid C; also called Fab No. 1
- ECL signal [6]: 378
- ECL signal [7]: 323
- ECL signal [8]: 286

B4: Fab VH1-8_IGHD2-2*01_IGHJ6*01 & L12_IGKJ1*01 (Fab, V domains shown)
VH: QVQLVQSGAEVKKPGASVKVSCKASGYTFTSYDINWVRQATGQGLEWMGWMNPNSGNTGYAQKFQGRVTMTRNTSISTAYMELSSLRSEDTAVYYCARGGYCSSTSCYADYYYYYGMDVWGQGTTVTVSS
VL: not shown
- ECL signal [18]: 2150 ECL signal
- ECL signal [19]: 1530 ECL signal

Further lines, results first:

- ECL signal [1]: 397
- ECL signal [2]: 690
- ECL signal [3]: 508
- ECL signal [4]: 454
- ECL signal [5]: 351
B1: Fab VH6-1_IGHD3-3*01_IGHJ4*01 & V4-3_IGLJ4*01 (Fab, V domains shown)
VH: QVQLQQSGPGLVKPSQTLSLTCAISGDSVSSNSAAWNWIRQSPSRGLEWLGRTYYRSKWYNDYAVSVKSRITINPDTSKNQFSLQLNSVTPEDTAVYYCAREYYDFWSGYYTDYFDYWGQGTLVTVSS
VL: QPVLTQPTSLSASPGASARLTCTLRSGINLGSYRIFWYQQKPESPPRYLLSYYSDSSKHQGSGVPSRFSGSKDASSNAGILVISGLQSEDEADYYCMIWHSSASFVFGGGTQLIIL
notes: Tested as a Fab made in E. coli; also called IGHV6-1*01

- ECL signal [9]: 279
- ECL signal [10]: 164
- ECL signal [11]: 215
- ECL signal [12]: 359
- ECL signal [13]: 2970
- ECL signal [14]: 331
- ECL signal [15]: 273
- ECL signal [16]: 319
- ECL signal [17]: 263
B3: Fab VH1-46_IGHD6-6*01_IGHJ1*01_S102A_S103P_S104F_H111Y & L6_IGKJ1*01 (Fab, V domains shown)
VH: B2 VH with S102A, S103P, S104F, H111Y
VL: not shown
notes: Fab made in E. coli; The heavy chain also carries the CH1 with Flag and His tags of Plasmid A, and the light chain the kappa constant region of Plasmid C
